Consider one molecule from article PMC11096006 (Immunity, 2024).

The target in this assay is Linear di-ubiquitin (UniProt P0CG48 1-76; P0CG48 1-76). Put plainly: crystal structure.

B1: N4BP1 CUE-like domain (Q845-D893) (domain or fragment, UniProt Q6A037 845-893, looked up)
chain: QRSSAETSELREALLKIFPDSEQKLKIDQILAAHPYMKDLNALSALVLD
For B1, the binding result was “binds”.
